Experimental data reported in US20090053212A1 (Astellas, published 2009).
Substitutions are numbered along the chain they refer to. One block for each binder: values may come before it. Where no end group is shown, it is not given here.

How the values were obtained:
BSA = biological target: T1, BSA (UniProt P02769 25-607); assay: ELISA, detection with HRP-labeled anti-E-Tag antibody
T1 construct: also called negative control BSA
Method: (§1) The peptide having the above-described sequence (hereinafter also referred to as the hOPN5 peptide) was reacted with BSA incorporating a maleimide group introduced using Sulfo-EMCS (Dojindo Laboratories) to prepare a hOPN5-BSA conjugate. The hOPN5-BSA conjugate was immobilized at 200 ng/100 μL/well on an ELISA plate (Nunc Company) at 4° C. overnight, and the plate was washed, after which blocking was performed with PBS supplemented with 1% BSA at 4° C. overnight. An antibody sample diluted with PBS supplemented with 1% BSA was added to the plate at 100 μL/well, and they were reacted at 37° C. for 1 hour. Detection was performed using a peroxidase (HRP)-labeled anti-human IgG (H+L) antibody (Wako Pure Chemical Industries, Ltd.). Absorbance at a wavelength of 450 nm was measured using a microplate reader (Molecular Devices Company).
(§2) The binding activity of the purified R2K1v1.7-scFv to the hOPN5 peptide was measured by an ELISA method. The method was generally the same as described above; in this measurement, HRP-labeled anti-E-Tag antibody was used as the labeled antibody.

[1] = biological target: T2, hOPN5-BSA conjugate (human osteopontin peptide CVDTYDGRGDSVVYGLRS coupled to BSA) (human, also: coupled to maleimide-activated BSA (Sulfo-EMCS), site not given here); assay: ELISA, HRP-labeled anti-E-Tag antibody detection
T2 construct: Immobilized on the ELISA plate at 200 ng/100 uL/well as a BSA conjugate; also called hOPN5 peptide
T2 peptide: CVDTYDGRGDSVVYGLRS
Method: as §1, §2

[2] = biological target: thrombin-cleaved human osteopontin (human), P10451; assay: cell-based or functional assay
Chain of thrombin-cleaved human osteopontin (human), P10451 (P10451 17-314): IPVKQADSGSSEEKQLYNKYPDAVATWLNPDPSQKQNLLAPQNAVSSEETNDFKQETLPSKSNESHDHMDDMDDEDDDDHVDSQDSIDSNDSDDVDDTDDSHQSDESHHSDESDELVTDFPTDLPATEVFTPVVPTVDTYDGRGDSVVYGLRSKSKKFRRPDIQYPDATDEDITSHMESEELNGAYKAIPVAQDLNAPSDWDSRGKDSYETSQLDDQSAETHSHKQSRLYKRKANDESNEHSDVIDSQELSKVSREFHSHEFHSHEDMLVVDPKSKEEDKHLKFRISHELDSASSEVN

[3] = biological target: T2, hOPN5-BSA conjugate (human osteopontin …); assay: ELISA, hOPN5-BSA conjugate on the plate, HRP-labeled anti-human IgG (H+L) detection
Method: as §1

biotinized hOPN5 peptide = biological target: T3, biotinized hOPN5 peptide (human, also: biotinylated, site not given here); assay: surface plasmon resonance (BIAcore), biotinized hOPN5 peptide on Sensor Chip SA, F(ab')2-PEG at 5 ug/mL
T3 peptide: CVDTYDGRGDSVVYGLRS
Method: The binding activity of the purified F(ab′)₂—PEG of R2K1v1.7 to the hOPN5 peptide was confirmed using surface plasmon resonance assay. The biotinized hOPN5 peptide was immobilized on Sensor Chip SA (BIAcore Company), and its binding activity was confirmed using the F(ab′)₂—PEG, previously diluted to 5 μg/mL with HBS-EP buffer (BIAcore Company); the results are shown in FIG. 16. From a rise in the signal, this F(ab′)₂—PEG was confirmed as having the same binding activity to the hOPN5 peptide as that of R2K1v1.7.

[4] = biological target: human OPN peptide (SVVYGLR sequence of human OPN) (human); assay: method not stated

T1 sequence (P02769 25-607 limits assumed): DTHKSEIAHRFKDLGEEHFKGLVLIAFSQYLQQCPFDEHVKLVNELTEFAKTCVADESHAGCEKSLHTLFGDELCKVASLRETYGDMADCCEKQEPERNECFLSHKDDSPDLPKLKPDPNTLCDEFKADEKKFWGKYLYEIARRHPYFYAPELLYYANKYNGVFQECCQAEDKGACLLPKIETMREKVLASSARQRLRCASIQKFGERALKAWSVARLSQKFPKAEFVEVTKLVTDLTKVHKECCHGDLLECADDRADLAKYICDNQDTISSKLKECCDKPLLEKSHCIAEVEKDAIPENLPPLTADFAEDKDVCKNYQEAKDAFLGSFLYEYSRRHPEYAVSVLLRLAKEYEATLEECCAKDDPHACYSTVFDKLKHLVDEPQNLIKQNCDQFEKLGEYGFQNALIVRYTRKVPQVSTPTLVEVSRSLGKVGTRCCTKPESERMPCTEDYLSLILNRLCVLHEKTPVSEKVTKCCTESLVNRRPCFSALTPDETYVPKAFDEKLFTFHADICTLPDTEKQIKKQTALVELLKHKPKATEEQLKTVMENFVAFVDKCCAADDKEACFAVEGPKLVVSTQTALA

B2: R2K1v1.8 antibody (antibody, V domains shown)
VH: QVQLVQSGAELVRPGSSVKVSCKASGYTFTDYEMHWVKQTPVHGLEWIGAIHPGRGGTAYNQKFKGKATLTADKSTSTAYMELSSLTSEDTAVYYCTRITGYFDVWGQGTTVTVSS
VL: DVVMTQSPLSLPVTLGQPASISCRSSQSIVHSNGNTYLEWYLQKPGQSPQLLIYKVSNRFSGVPDRFSGSGSGTDFTLKISRVEAEDVGVYYCFQGSHVPLTFGQGTKLEIKR
notes: Only entries with a leader are tied to VH1.8 and VL1.8; also called humanized 2K1 antibody; R2K1 antibody
Mean cell count (migration of TNF-alpha-activated human peripheral blood monocytes, 48-well microchemotaxis chamber; antibody 50 ug/mL) [2]: 688 cells/mm^3
binding result [3]: binds

B4: R2K1v1.7 antibody (antibody, human IgG1, kappa, V domains shown)
VH: B2 VH with V5Q, L11V, V12K, R13K, S16A, S25L
VL: B2 VL with P12S
fold binding affinity against the corresponding monkey OPN peptide [4]: > 100 times

Continued, values first:

binding result (BSA): no binding
binding result [1]: binds
B1: R2K1v1.7-scFv (scFv)
scFv: QVQLQQSGAEVKKPGASVKVSCKALGYTFTDYEMHWVKQTPVHGLEWIGAIHPGRGGTAYNQKFKGKATLTADKSTSTAYMELSSLTSEDTAVYYCTRITGYFDVWGQGTTVTVSSGGGGSGGGGSGGGGSDVVMTQSPLSLSVTLGQPASISCRSSQSIVHSNGNTYLEWYLQKPGQSPQLLIYKVSNRFSGVPDRFSGSGSGTDFTLKISRVEAEDVGVYYCFQGSHVPLTFGQGTKLEIKR
notes: Structure VH1.7-linker-VL1.7, expressed in E. coli HB2151 periplasm, nearly all monomeric by gel filtration; also called scFv of R2K1v1.7; purified R2K1v1.7-scFv; not shown: C-terminal E-Tag from the pCANTAB5E vector, and any joining residues from the NotI site

binding result (biotinized hOPN5 peptide): binds
B3: polyethylene glycol modified F(ab')2 of the R2K1v1.7 antibody (other, not shown: small tags and cut ends)
heavy: B2 VH with V5Q, L11V, V12K, R13K, S16A, S25L
light: DVVMTQSPLSLSVTLGQPASISCRSSQSIVHSNGNTYLEWYLQKPGQSPQLLIYKVSNRFSGVPDRFSGSGSGTDFTLKISRVEAEDVGVYYCFQGSHVPLTFGQGTKLEIKRTVAAPSVFIFPPSDEQLKSGTASVVCLLNNFYPREAKVQWKVDNALQSGNSQESVTEQDSKDSTYSLSSTLTLSKADYEKHKVYACEVTHQGLSSPVTKSFNRGEC
modifications: maleimidated polyethylene glycol SUNBRIGHT ME-120MA coupled to thiol groups activated by DTT reduction
notes: Made by pepsin digestion of R2K1v1.7, reduction of F(ab')2 to Fab' with DTT and coupling with maleimide-PEG; also called F(ab')2-PEG; F(ab')2-PEG of R2K1v1.7
